Substitutions are numbered along the chain they refer to.
B1: gRNA-TTR ; TTR target (ssRNA ; dsDNA)
RNA: AGAGAAUGUGUGCAUAGUCACACCAGUAAGAUUUGGUGUCUAU
DNA 1: CAGTAAGATTTGGTGTCTAT
DNA 2: ATAGACACCAAATCTTACTG
B2: gRNA-HBG ; HBG target (ssRNA ; dsDNA)
RNA: AGAGAAUGUGUGCAUAGUCACACACAAGGCAAACUUGACCAAU
DNA 1: ACAAGGCAAACTTGACCAAT
DNA 2: ATTGGTCAAGTTTGCCTTGT
B3: gRNA-HBB ; HBB target (ssRNA ; dsDNA)
RNA: AGAGAAUGUGUGCAUAGUCACACUAUGCAGAAAUAUUGCUAUUGCCU
DNA 1: TATGCAGAAATATTGCTATTGCCT
DNA 2: AGGCAATAGCAATATTTCTGCATA

What was measured:
Cas12i-69 = target: T1, Cas12i-69 (N295R,N260R,G705R); test: cell_activity; 293T indels; editing >15%
T1 chain: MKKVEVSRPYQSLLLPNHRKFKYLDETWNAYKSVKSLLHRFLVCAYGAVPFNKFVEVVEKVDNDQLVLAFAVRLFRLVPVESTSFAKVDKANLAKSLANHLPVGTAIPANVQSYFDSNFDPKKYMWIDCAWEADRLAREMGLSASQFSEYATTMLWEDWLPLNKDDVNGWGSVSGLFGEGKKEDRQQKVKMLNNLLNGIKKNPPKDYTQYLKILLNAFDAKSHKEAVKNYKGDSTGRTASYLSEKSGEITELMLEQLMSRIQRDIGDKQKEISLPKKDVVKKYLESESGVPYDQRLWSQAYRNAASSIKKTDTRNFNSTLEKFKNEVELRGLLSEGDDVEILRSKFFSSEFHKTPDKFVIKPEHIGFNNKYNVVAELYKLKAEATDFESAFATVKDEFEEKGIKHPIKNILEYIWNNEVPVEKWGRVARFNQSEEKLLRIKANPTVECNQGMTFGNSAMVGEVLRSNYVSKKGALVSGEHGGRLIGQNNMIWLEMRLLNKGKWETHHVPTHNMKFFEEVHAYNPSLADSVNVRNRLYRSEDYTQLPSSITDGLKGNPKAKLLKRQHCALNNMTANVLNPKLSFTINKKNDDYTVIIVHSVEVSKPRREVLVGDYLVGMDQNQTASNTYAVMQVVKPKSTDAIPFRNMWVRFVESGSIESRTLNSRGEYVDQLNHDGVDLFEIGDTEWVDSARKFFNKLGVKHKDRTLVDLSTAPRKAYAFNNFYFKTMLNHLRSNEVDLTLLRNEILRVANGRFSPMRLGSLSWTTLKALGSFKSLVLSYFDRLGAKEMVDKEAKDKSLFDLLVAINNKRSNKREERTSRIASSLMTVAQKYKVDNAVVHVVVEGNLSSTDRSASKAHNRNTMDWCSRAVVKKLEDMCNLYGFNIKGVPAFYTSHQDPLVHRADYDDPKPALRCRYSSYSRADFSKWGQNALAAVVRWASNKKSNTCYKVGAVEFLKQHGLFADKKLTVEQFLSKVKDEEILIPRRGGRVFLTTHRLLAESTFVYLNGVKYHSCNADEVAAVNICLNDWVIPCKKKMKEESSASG
Method: (§1) Plating: The 293T cell line was plated when the confluence reached 70-80%, and the number of cells seeded in a 24-well plate was 5*10\hat{ }5 cells/well.
(§2) Transfection: After 12-14 hours of plating, transfection was performed. 100 μl of Opti-MEM, 1.5 μl of PEI (Yisheng Bio, Polyethylenimine Linear (PEI) MW25000), 250 ng of the mutant clone plasmid from Example 2, and 250 ng of gRNA plasmid for targeting endogenous genes were added to each well of a 24-well plate. The mixture was incubated at room temperature for 20 minutes and then added to 293T cells for transfection. After transfection overnight, the medium was replaced with fresh medium and cultured for the next period.
(§3) DNA extraction, PCR amplification, and Sanger sequencing: After culturing for 72 hours, cells were washed with PBS, and then 100 μl of cell lysis buffer (Viagen, DirectPCR® Lysis Reagent (Cell)) was added for lysis to obtain a lysate containing genomic DNA. The genomic DNA was amplified in the region near the target sequence, and the PCR product was sent to a sequencing company for Sanger sequencing.

Cas12i-99 = target: T2, Cas12i-99 (N295R,N260R,G705R,D590R); test: cell_activity; 293T indels
T2 chain: T1 chain with D590R
Method: as §1, §2, §3

Binder	indel editing efficiency (Cas12i-69)	relative indel editing efficiency (Cas12i-99)	relative indel editing efficiency (Cas12i-69)
B1	4.68 fold of wild type	1.19 fold of Cas12i-69	–
B2	–	7 fold of wild type	–
B3	–	0.9 fold of Cas12i-69	1.58 fold of Cas12i-30

Reference: patent publication US20260250651, “CAS12 PROTEINS AND USES THEREOF” (GUANGZHOU REFORGENE MEDICINE CO., LTD., published 2026)
